# Publication PMC8533794, “Selection of a Nuclease-Resistant RNA Aptamer Targeting CD19”
# T1: CD19 on transfected COS-7 cells (human) (UniProt P15391)
# T1 sequence: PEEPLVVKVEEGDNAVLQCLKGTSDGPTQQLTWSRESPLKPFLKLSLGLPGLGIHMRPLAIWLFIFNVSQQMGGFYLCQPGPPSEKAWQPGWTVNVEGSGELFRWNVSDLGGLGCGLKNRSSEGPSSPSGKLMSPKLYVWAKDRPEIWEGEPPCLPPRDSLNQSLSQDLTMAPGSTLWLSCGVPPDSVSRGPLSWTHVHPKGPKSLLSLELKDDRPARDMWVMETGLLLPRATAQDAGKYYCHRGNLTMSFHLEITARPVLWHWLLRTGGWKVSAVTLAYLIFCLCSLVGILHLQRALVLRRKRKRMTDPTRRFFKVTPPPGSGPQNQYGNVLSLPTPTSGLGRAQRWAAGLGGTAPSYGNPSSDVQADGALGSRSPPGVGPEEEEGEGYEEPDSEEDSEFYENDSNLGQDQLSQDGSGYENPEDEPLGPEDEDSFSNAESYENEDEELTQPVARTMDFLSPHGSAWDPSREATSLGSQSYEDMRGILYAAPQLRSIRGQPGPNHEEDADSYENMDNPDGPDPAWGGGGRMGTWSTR
# T2: endogenous CD19 of MEC-1 cells (human (MEC-1 B-CLL cell line)) (UniProt P15391)
# T2 sequence: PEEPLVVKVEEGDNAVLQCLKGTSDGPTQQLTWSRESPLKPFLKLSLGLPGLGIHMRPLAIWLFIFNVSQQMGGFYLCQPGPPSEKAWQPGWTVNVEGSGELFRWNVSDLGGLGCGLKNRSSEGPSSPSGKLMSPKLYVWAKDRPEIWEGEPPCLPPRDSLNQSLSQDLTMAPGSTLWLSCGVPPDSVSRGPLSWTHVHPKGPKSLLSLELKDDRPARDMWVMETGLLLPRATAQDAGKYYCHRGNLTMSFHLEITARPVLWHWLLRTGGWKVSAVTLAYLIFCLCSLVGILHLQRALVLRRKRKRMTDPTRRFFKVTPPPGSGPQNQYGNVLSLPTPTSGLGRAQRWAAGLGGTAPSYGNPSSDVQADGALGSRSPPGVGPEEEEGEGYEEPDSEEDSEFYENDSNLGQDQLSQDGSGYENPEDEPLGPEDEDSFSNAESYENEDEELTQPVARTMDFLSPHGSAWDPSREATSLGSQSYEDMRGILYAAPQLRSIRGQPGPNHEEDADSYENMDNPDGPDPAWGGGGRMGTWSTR
# Key:
# [1] = target: T1, CD19 on transfected COS-7 cells (human); assay: cell binding RT-qPCR; conditions: 200 nM aptamer, poly(I); 2'-fluoro pyrimidines; BLI: running buffer not stated (tips prehydrated in PBS), temperature not stated; cell binding: serum-free medium, 37 C, 30 min, with poly(I) 0.1 ug/uL (qPCR) …
# [2] = target: T2, endogenous CD19 of MEC-1 cells (human (MEC-1 B-CLL cell line)); assay: flow cytometry; conditions: 2'-fluoro pyrimidines; BLI: running buffer not stated (tips prehydrated in PBS), temperature not stated; cell binding: serum-free medium, 37 C, 30 min, with poly(I) 0.1 ug/uL (qPCR) …
# [3] = target: rhBCMA (B Cell Maturation Antigen) (human, UniProt Q02223 1-54); assay: BLI; up to 1 uM aptamer; BLI: running buffer not stated (tips prehydrated in PBS), temperature not stated; cell binding: serum-free medium, 37 C, 30 min, with poly(I) 0.1 ug/uL (qPCR) or tRNA 0.4 ug/uL plus 100 nM Ctrl Apt (FACS); pull-down lysis: 10 mM Tris-HCl pH 7.5, 200 mM NaCl, 5 mM EDTA, 0.1% Triton X-100; conditions: protein: recombinant
# Chain of rhBCMA (B Cell Maturation Antigen) (Q02223 1-54): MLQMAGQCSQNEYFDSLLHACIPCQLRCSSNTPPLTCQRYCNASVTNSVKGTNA
# [4] = target: T3, rhCD19 (recombinant human CD19, extracellular domain) (human, UniProt P15391 20-291); assay: BLI; 2.5-100 nM aptamer; BLI: running buffer not stated (tips prehydrated in PBS), temperature not stated; cell binding: serum-free medium, 37 C, 30 min, with poly(I) 0.1 ug/uL (qPCR) or tRNA 0.4 ug/uL plus 100 nM Ctrl Apt (FACS); pull-down lysis: 10 mM Tris-HCl pH 7.5, 200 mM NaCl, 5 mM EDTA, 0.1% Triton X-100; conditions: protein: recombinant
# [5] = target: T3, rhCD19 (recombinant human CD19, …); assay: BLI; up to 1 uM aptamer; BLI: running buffer not stated (tips prehydrated in PBS), temperature not stated; cell binding: serum-free medium, 37 C, 30 min, with poly(I) 0.1 ug/uL (qPCR) or tRNA 0.4 ug/uL plus 100 nM Ctrl Apt (FACS); pull-down lysis: 10 mM Tris-HCl pH 7.5, 200 mM NaCl, 5 mM EDTA, 0.1% Triton X-100; conditions: protein: recombinant
molecule,measurement,setting,value
UGAGCCCUGUUCGACAGGAGGCUCA [B85.T2],binding signal (fold over parental COS-7),[1],22
UGAGCCCUGUUCGACAGGAGGCUCA [B85.T2 (FAM)],binding signal (fold over Jurkat),[2],2
CCUGUUGUUCGACAGGAGGCUCACAACAGG [B88.T2],binding signal (fold over parental COS-7),[1],7
"UGAGCCCUGUUCGACAGGAGGCUCA (structured_RNA, 2'-fluoro pyrimidines) [B85.T2]",binding result,[3],no binding
same,Kd,[4],49.9 ± 13 nM
"UUCGUACCGGGUAGGUUGGCUUGCACAUAGAACGUGUCA (structured_RNA, 2'-fluoro pyrimidines) [Ctrl Apt]",binding result,[5],no binding
